Data: patent US20250011363A1, “OPTIMIZED SHORTENED PEPTIDE THAT BINDS TO ACETYLCHOLINE RECEPTOR, AND USE THEREOF” (SKINMED CO., LTD., priority 2021, published 2025)

Molecular target: acetylcholine receptor
Experiment: SPR, AchR immobilised on CM5 chip, peptide 10 uM

In order of rising Binding affinity (RU):
1. KKITFR [6mer-1-1036]  21 RU
2. KRHTHR [6mer-1-1016]  21 RU
3. RKPWAR [6mer-1-1008]  21 RU
4. RRKKIR [6mer-1-1038]  21 RU
5. KRKSER [6mer-1-985]  22 RU
6. KKPWHK [6mer-1-1027]  22 RU
7. RKDTVR [6mer-1-1022]  22 RU
8. KKAEEK [6mer-1-986]  22 RU
9. RKATNR [6mer-1-999]  24 RU
10. RKYCHR [6mer-1-1003]  24 RU
11. KRYPDR [6mer-1-988]  24 RU
12. KKASDR [6mer-1-1034]  24 RU
13. KKNAWR [6mer-1-1014]  25 RU
14. RKAHDK [6mer-1-991]  25 RU
15. KKDKIK [6mer-1-1006]  25 RU
16. KREEWR [6mer-1-1015]  26 RU
17. RKPPDR [6mer-1-1005]  26 RU
18. KRAHDK [6mer-1-993]  26 RU
19. KRATVR [6mer-1-989]  27 RU
20. KKTSMR [6mer-1-1032]  27 RU
21. RRCTAK [6mer-1-992]  28 RU
22. RKMSHR [6mer-1-1000]  28 RU
23. KKTAFK [6mer-1-1018]  28 RU
24. KRIHMK [6mer-1-1002]  29 RU
25. RKMSKK [6mer-1-1009]  29 RU
26. KKTTNK [6mer-1-1013]  29 RU
27. KRHMVK [6mer-1-1033]  30 RU
28. KKFCFR [6mer-1-1030]  30 RU
29. RKKCER [6mer-1-1026]  30 RU
30. KRFAKR [6mer-1-1025]  33 RU
31. KRCHHR [6mer-1-995]  33 RU
32. KKESDK [6mer-1-984]  33 RU
33. KKPKHK [6mer-1-1010]  33 RU
34. RRTEFK [6mer-1-987]  34 RU
35. RRCHHR [6mer-1-1035]  34 RU
36. KKPTFR [6mer-1-997]  35 RU
37. RRAWVR [6mer-1-1012]  35 RU
38. RKKPEK [6mer-1-1011]  35 RU
39. RRKNNR [6mer-1-1037]  36 RU
40. RRHCWR [6mer-1-1028]  36 RU
41. RKTEIR [6mer-1-1024]  36 RU
42. KKHEFR [6mer-1-994]  37 RU
43. KRDAWR [6mer-1-1019]  37 RU
44. KRANMK [6mer-1-1017]  37 RU
45. KRPHKK [6mer-1-983]  38 RU
46. RKDTHK [6mer-1-1031]  38 RU
47. KKMEAK [6mer-1-1020]  38 RU
48. RKPTDR [6mer-1-1007]  39 RU
49. RRPPWK [6mer-1-996]  39 RU
50. KRIMHK [6mer-1-1023]  39 RU
51. RRFTER [6mer-1-990]  40 RU
52. KRADIK [6mer-1-1039]  40 RU
53. RRCMAK [6mer-1-1029]  40 RU
54. RKHSHR [6mer-1-1004]  41 RU
55. KKHDIK [6mer-1-1021]  41 RU
56. KRNPVK [6mer-1-998]  41 RU
